This is an account of results in patent publication US20260166139A1 (AKESO BIOPHARMA, published 2026).

Positions count from the first letter of the chain named. Where “and” joins values, the source holds several entries; their conditions need not be identical. Equal values may be shown once.

Experiment [1] deals with T1, CTLA4 antigen on the surface of 293F-CTLA4 host cells (UniProt P16410 36-223, limits assumed).
T1 construct: whole, on cells
T1 sequence (looked up): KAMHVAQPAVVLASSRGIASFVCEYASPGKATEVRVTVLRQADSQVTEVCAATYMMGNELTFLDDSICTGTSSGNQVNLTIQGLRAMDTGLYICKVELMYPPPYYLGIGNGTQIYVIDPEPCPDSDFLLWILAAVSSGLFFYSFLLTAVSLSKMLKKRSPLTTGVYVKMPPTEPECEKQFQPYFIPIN
Put plainly: flow cytometry, 293F-CTLA4 cells. Here is the method: (§1) After addition of 300 μL PBS, the fluorescent signal was detected using the FITC channel on the flow cytometer.

In experiment [2] the target is T2, human CTLA4 (human, UniProt P16410 36-161, limits assumed).
T2 construct: also called human CTLA4 antigen; CTLA4 protein
T2 sequence (looked up): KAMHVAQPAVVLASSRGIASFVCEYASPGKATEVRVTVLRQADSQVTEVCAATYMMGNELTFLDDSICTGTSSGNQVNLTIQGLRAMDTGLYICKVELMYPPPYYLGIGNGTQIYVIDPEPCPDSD
Briefly: ELISA on coated CTLA4, source Human. Here is the method: (§2) The ELISA plate was coated with CTLA4 at 4° C. over night. […] The enzyme conjugated secondary antibody was added for incubation for 30 min. Then, the absorbance at 450 nm was determined on an ELISA plate reader.

In experiment [3] the target is T3, monkey CTLA4-hFc (monkey).
T3 construct: also called monkey CTLA4 antigen
Briefly: ELISA on coated CTLA4, source Monkey. How it is done: as §2

Experiment [4] deals with T1, CTLA4 antigen on the surface of …. Briefly: flow cytometry, 293F-CTLA4 cells; antibody 1 nM. How it is done: as §1
Experiment [5] shares this target. Put plainly: flow cytometry, 293F-CTLA4 cells; antibody 5 nM. Here is the method: as §1
Experiment [6] shares this target. Briefly: flow cytometry, 293F-CTLA4 cells; antibody 10 nM. Here is the method:
as §1

The target is the same in experiment [7]. Put plainly: flow cytometry, 293F-CTLA4 cells; antibody 25 nM. How it is done: as §1
Experiment [8] shares this target. Put plainly: flow cytometry, 293F-CTLA4 cells; antibody 0.1 nM. Here is the method: as §1
For experiment [9] the target is unchanged. Put plainly: flow cytometry, 293F-CTLA4 cells; antibody 0.01 nM. Here is the method: as §1
The target is the same in experiment [10]. Briefly: flow cytometry, 293F-CTLA4 cells; antibody 0.001 nM. How it is done:
as §1

Experiment [11] has as its target T4, CTLA4 antigen (NCBI Gene ID: 1493) obtained by TEV protease cleavage of CTLA4-mFc (Homo sapiens (Human), UniProt P16410 37-161).
T4 construct: also called the antigen CTLA4
T4 sequence: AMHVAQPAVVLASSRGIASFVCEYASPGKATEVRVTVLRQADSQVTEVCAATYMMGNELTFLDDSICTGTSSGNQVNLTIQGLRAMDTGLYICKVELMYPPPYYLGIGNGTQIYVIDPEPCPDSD
Briefly: BLI (Fortebio), antibody on AR2G sensor, CTLA4 in solution. Here is the method: 2. […] After equilibration in PBST, the CTLA4 antigen was added for binding. […] Dissociation occurred in PBST.

Experiment [12] concerns the target T3, monkey CTLA4-hFc. Put plainly: ELISA, coat monkey CTLA4-hFc 0.25 ug/ml; antibody 0 (blank). Here is the method: as §2
The target in experiment [13] is T2, human CTLA4. Briefly: ELISA, coat human CTLA4 0.5 ug/ml; antibody 0 (blank). How it is done: as §2
Experiment [14] addresses T5, CTLA4-mFc.
T5 construct: also called CTLA4ECD-mFc fusion protein; CTLA4 antigen
Briefly: competitive ELISA, competitor B7-1. Here is the method:
(§3) After incubation at 37° C. for 40 minutes, the enzyme conjugated secondary antibody was added. After incubation at 37° C. for 30 minutes, the absorbance at 450 nm was detected on an ELISA plate reader.
Target sequence in this assay (chain, as listed by the source limits assumed): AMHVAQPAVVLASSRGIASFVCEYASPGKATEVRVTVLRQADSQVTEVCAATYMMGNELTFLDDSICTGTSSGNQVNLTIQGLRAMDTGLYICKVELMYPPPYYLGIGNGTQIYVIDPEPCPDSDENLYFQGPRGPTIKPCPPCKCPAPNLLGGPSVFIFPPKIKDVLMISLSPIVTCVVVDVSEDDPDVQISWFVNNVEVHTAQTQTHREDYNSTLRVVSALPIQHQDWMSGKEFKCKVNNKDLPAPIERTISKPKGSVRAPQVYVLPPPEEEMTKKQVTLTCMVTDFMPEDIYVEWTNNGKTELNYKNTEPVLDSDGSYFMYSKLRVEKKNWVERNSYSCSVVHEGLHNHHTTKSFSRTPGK

For experiment [15], the target named is T5, CTLA4-mFc. Briefly: competitive ELISA, competitor B7-2. How it is done:
as §3
Target sequence in this assay (chain, as listed by the source limits assumed): as above

Experiment [16] deals with T5, CTLA4-mFc. Put plainly: competitive ELISA, CTLA4-mFc coated, competitor B7/2-His; antibody 1 µg/ml. Here is the method:
as §3

The target in experiment [17] is T5, CTLA4-mFc. Put plainly: competitive ELISA, CTLA4-mFc coated, competitor B7/2-His; antibody 1 µg/ml diluted 1:3. Here is the method:
as §3

The target of experiment [18] is T5, CTLA4-mFc. Put plainly: competitive ELISA, B7/1-hFc coated (competitor), CTLA4-mFc added; antibody 0 (no antibody). Here is the method: as §3
Experiment [19] concerns the target T5, CTLA4-mFc. Briefly: competitive ELISA, B7/1-hFc coated (competitor), CTLA4-mFc added; antibody 5 µg/ml diluted 1:9. How it is done:
as §3

Experiment [20] addresses T5, CTLA4-mFc. Briefly: competitive ELISA, B7/1-hFc coated (competitor), CTLA4-mFc added; antibody 5 µg/ml. How it is done:
as §3

In experiment [21] the target is T5, CTLA4-mFc. Put plainly: competitive ELISA, CTLA4-mFc coated, competitor B7/2-His; antibody 1 µg/ml diluted 1:81. Here is the method:
as §3

The target in experiment [22] is T5, CTLA4-mFc. Briefly: competitive ELISA, B7/1-hFc coated (competitor), CTLA4-mFc added; antibody 5 µg/ml diluted 1:3. Here is the method: as §3
The target in experiment [23] is T5, CTLA4-mFc. Briefly: competitive ELISA, CTLA4-mFc coated, competitor B7/2-His; antibody 3 µg/ml diluted 1:27. Here is the method:
as §3

For experiment [24], the target named is T5, CTLA4-mFc. Briefly: competitive ELISA, competitor B7-2; control run with 8D2.
The target of experiment [25] is T5, CTLA4-mFc. Briefly: competitive ELISA, competitor B7-1; control run with 8D2H1L1.
The target of experiment [26] is T5, CTLA4-mFc. Briefly: competitive ELISA, competitor B7-1; control run with 8D2H2L2.
In experiment [27] the target is T5, CTLA4-mFc. Briefly: competitive ELISA, competitor B7-1; control run with 8D2H3L3.
Experiment [28] addresses T5, CTLA4-mFc. Put plainly: competitive ELISA, competitor B7-2; control run with 8D2(Re).
Experiment [29] has as its target T5, CTLA4-mFc. Briefly: competitive ELISA, competitor B7-2; control run with 8D2H1L1.
In experiment [30] the target is T5, CTLA4-mFc. Put plainly: competitive ELISA, competitor B7-2; control run with 8D2H2L2.
Experiment [31] addresses T5, CTLA4-mFc. Briefly: competitive ELISA, competitor B7-2; control run with 8D2H3L3.
Experiment [32] concerns the target T5, CTLA4-mFc. Briefly: competitive ELISA, competitor B7-1; control run with 8D2H2L15.
The target in experiment [33] is T5, CTLA4-mFc. Briefly: competitive ELISA, competitor B7-1; control run with 8D2H2L17.
Experiment [34] addresses T5, CTLA4-mFc. Briefly: competitive ELISA, competitor B7-2; control run with 8D2H2L15.
Experiment [35] deals with T5, CTLA4-mFc. Put plainly: competitive ELISA, competitor B7-2; control run with 8D2H2L17.

B1: humanized antibody 8D2H2L2 (antibody, V domains shown)
VH: EVQLVESGGGLVQPGGSMRLSCAASGFTFSDNWMNWVRQAPGKGLEWLAQIRNKPYNYETYYSASVKGRFTISRDDSKNSVYLQMNSLKTEDTGVYYCTAQFAYWGQGTLVTVSS
VL: DIQMTQSPSSLSASVGDRVTITCRTSENIYGGLNWYQRKPGKSPKLLIYGATNLASGVSSRFSGSGSGTDYTLTISSLQPEDVATYYCQNVLRSPFTFGSGTKLEIK
notes: also called 8D2H2L2(20150327); 8D2H2L2(20140422)
In the case of B1, the EC50 in experiment [1] is 4.37 nM; in the experiment with human CTLA4 [2], 0.12 nM and 0.082 nM and 0.118 nM; with monkey CTLA4-hFc [3], 0.227 nM. The fluorescence intensity in experiment [4] came to 625; in experiment [5] it was 972; in experiment [6], 1160; in [7], 1130; in experiment [8], 124; in [9], 32.5. For the same molecule, in [10], the fluorescence intensity is 10.8. Further, the affinity in [11], expressed as Kd, was 0.955 nM. The molecule also came in with a koff in experiment [11] of 0.000388 s⁻¹. The kon in experiment [11] stood at 407000 M⁻¹ s⁻¹. Moreover, in the experiment with monkey CTLA4-hFc [12], the “absorbance at 450 nm” value is 0.048.

B2: humanized antibody 8D2H1L1 (antibody, V domains shown)
VH: B1 VH with A64D
VL: B1 VL with P40Q, V58M, T74K, Q79H, E81D
Regarding B2, it took 5.06 nM to reach a half-maximal effect in experiment [1] (EC50). Moreover, the fluorescence intensity stood at 103 in experiment [4]; 559 in experiment [5]; 944 in [6]; 1170 in experiment [7]; 21.2 in experiment [8]; 10.8 in experiment [9]. In experiment [10], this molecule registered a fluorescence intensity of 10.8. For the same molecule, the “absorbance at 450 nm” value with human CTLA4 [13] was 0.067. For the same molecule, the affinity in [11], expressed as Kd, was 0.608 nM. In experiment [11], this molecule had a koff of 0.000207 s⁻¹. In experiment [11], the kon came to 340000 M⁻¹ s⁻¹.

B3: humanized antibody 8D2H2L17 (antibody, V domains shown)
VH: B1 VH
VL: B1 VL with R93S, P95R, F96P, T97G
For the molecule B3, the EC50 with CTLA4-mFc [14] is 1.79 nM; with CTLA4-mFc [15], 0.296 nM. The “absorbance at 450 nm” value with CTLA4-mFc [16] turned out to be 0.05; with CTLA4-mFc [17] it was 0.05; with CTLA4-mFc [18], 1.18; in the experiment with CTLA4-mFc [19], 0.08.

B4: humanized antibody 8D2H2L15 (antibody, V domains shown)
VH: B1 VH
VL: B1 VL with R93S, S94R, P95H, F96P, T97G
For B4, the EC50 with CTLA4-mFc [14] is 1.97 nM; with CTLA4-mFc [15], 0.227 nM. For the same molecule, the “absorbance at 450 nm” value with CTLA4-mFc [16] is 0.05; with CTLA4-mFc [20] it was 0.07; with CTLA4-mFc [17] it was 0.05; with CTLA4-mFc [21], 0.75; in the experiment with CTLA4-mFc [22], 0.07.

B5: monoclonal antibody 8D2 (antibody, V domains shown)
VH: EVKLDETGGGLVQPGRPMKLSCVASGFTFSDNWMNWVRQSPEKGLEWLAQIRNKPYNYETYYSDSVKGRFTISRDDSKSSVYLQMNNLRGEDMGIYYCTAQFAYWGQGTLVTVSA
VL: DIQMTQSPASLSASVGETVTITCGTSENIYGGLNWYQRKQGKSPQLLIFGATNLADGMSSRFSGSGSGRQYSLKISSLHPDDVATYYCQNVLRSPFTFGSGTKLEI
notes: Mouse antibody purified from hybridoma supernatant; also called mAb 8D2; antibody secreted by the CTLA4-8D2 hybridoma cell line LT001
Regarding B5, the values for the concentration for a half-maximal effect (EC50) in the experiment with CTLA4-mFc [14] and with CTLA4-mFc [15] were 0.44 nM and 0.208 nM, respectively. For the same molecule, the “absorbance at 450 nm” value with CTLA4-mFc [23] worked out at 0.675.

B6: control antibody 10D1 (antibody, V domains shown)
VH: QVQLVESGGGVVQPGRSLRLSCAASGFTFSSYTMHWVRQAPGKGLEWVTFISYDGNNKYYADSVKGRFTISRDNSKNTLYLQMNSLRAEDTAIYYCARTGWLGPFDYWGQGTLVTVSS
VL: not shown
As to B6, the EC50 turned out to be 0.464 nM with CTLA4-mFc [24]; 1.91 nM with CTLA4-mFc [25]; 5.15 nM with CTLA4-mFc [26]; 5.15 nM with CTLA4-mFc [27]; 0.464 nM in the experiment with CTLA4-mFc [28]; 0.464 nM with CTLA4-mFc [29]. Further, the EC50 worked out at 2.06 nM in the experiment with CTLA4-mFc [30]; 2.06 nM with CTLA4-mFc [31]; 4.59 nM with CTLA4-mFc [32]; 4.59 nM with CTLA4-mFc [33]; 0.629 nM with CTLA4-mFc [34]; 0.629 nM with CTLA4-mFc [35]. In addition, the “absorbance at 450 nm” value with CTLA4-mFc [16] came out at 0.05; with CTLA4-mFc [17], 0.07.
